# T1: His6-tagged human PSF (polypyrimidine tract binding protein associated splicing factor) (human, UniProt P23246 1-707)
# T1 sequence (looked up): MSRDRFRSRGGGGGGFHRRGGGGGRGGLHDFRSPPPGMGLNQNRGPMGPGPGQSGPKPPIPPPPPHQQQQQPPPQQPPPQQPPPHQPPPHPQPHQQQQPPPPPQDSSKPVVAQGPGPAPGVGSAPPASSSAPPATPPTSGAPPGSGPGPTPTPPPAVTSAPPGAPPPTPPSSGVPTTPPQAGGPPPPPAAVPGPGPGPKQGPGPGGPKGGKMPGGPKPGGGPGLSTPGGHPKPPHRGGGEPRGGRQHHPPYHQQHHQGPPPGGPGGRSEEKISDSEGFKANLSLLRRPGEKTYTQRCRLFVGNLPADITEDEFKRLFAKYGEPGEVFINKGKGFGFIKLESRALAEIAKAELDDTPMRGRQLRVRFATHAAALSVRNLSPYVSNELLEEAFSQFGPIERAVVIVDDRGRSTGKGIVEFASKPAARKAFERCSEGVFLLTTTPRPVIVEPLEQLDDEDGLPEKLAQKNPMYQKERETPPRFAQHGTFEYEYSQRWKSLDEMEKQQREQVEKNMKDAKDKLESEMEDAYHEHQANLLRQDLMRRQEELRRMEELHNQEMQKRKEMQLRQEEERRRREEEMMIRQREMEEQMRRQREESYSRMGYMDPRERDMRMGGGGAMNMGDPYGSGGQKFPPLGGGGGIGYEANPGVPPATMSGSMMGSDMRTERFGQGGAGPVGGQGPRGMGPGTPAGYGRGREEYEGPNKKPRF
# B1: human DMC1 (natural protein, UniProt Q14565 1-340, looked up)
# chain: MKEDQVVAEEPGFQDEEESLFQDIDLLQKHGINVADIKKLKSVGICTIKGIQMTTRRALCNVKGLSEAKVDKIKEAANKLIEPGFLTAFEYSEKRKMVFHITTGSQEFDKLLGGGIESMAITEAFGEFRTGKTQLSHTLCVTAQLPGAGGYPGGKIIFIDTENTFRPDRLRDIADRFNVDHDAVLDNVLYARAYTSEHQMELLDYVAAKFHEEAGIFKLLIIDSIMALFRVDFSGRGELAERQQKLAQMLSRLQKISEEYNVAVFVTNQMTADPGATMTFQADPKKPIGGHILAHASTTRISLRKGRGELRIAKIYDSPEMPENEATFAITAGGIGDAKE
# B2: human RAD51 (natural protein, UniProt Q06609 1-339, looked up)
# chain: MAMQMQLEANADTSVEEESFGPQPISRLEQCGINANDVKKLEEAGFHTVEAVAYAPKKELINIKGISEAKADKILAEAAKLVPMGFTTATEFHQRRSEIIQITTGSKELDKLLQGGIETGSITEMFGEFRTGKTQICHTLAVTCQLPIDRGGGEGKAMYIDTEGTFRPERLLAVAERYGLSGSDVLDNVAYARAFNTDHQTQLLYQASAMMVESRYALLIVDSATALYRTDYSGRGELSARQMHLARFLRMLLRLADEFGVAVVITNQVVAQVDGAAMFAADPKKPIGGNIIAHASTTRLYLRKGRGETRICKIYDSPCLPEAEAMFAINADGVGDAKD
# Target: T1, His6-tagged human PSF (polypyrimidine …)
# Assay: pull-down
row,binding result,Binder
1,binds,B1
2,binds,B2
